Results on five molecules are retold here after patent US20250375530A1 (ALMAC DISCOVERY, published 2025).

For test [1], the target named is T1, human ROR1-Fc (CHO) (human).
T1 construct: also called hROR1-Fc; huROR1-Fc
As to the kind of experiment: BLI, hROR1; MMAE conjugate.

The next test has as its target T2, mouse ROR1-Fc (CHO) (mouse).
T2 construct: also called mROR1-hFc; mROR1
Nature of the test: ELISA, mROR1-hFc coated. (ELISA stands for enzyme-linked immunosorbent assay.)

Test [2] addresses T1, human ROR1-Fc (CHO). Nature of the test: ELISA, plate coated with human ROR1-hFc, HisMyc-tagged VNAR at a single 5 ug/mL, Abs 450 nm; no blank bar shown.
Test [3] has as its target T1, human ROR1-Fc (CHO). As to the kind of experiment: ELISA dose response, plate coated with hROR1-Fc, HisMyc-tagged VNAR 0-5 ug/mL (linear axis), Abs 450 nm.

What is called Kd is a measure of binding affinity in units of concentration. A higher Kd goes with weaker binding.

T1 sequence (chain, as listed by the source limits assumed): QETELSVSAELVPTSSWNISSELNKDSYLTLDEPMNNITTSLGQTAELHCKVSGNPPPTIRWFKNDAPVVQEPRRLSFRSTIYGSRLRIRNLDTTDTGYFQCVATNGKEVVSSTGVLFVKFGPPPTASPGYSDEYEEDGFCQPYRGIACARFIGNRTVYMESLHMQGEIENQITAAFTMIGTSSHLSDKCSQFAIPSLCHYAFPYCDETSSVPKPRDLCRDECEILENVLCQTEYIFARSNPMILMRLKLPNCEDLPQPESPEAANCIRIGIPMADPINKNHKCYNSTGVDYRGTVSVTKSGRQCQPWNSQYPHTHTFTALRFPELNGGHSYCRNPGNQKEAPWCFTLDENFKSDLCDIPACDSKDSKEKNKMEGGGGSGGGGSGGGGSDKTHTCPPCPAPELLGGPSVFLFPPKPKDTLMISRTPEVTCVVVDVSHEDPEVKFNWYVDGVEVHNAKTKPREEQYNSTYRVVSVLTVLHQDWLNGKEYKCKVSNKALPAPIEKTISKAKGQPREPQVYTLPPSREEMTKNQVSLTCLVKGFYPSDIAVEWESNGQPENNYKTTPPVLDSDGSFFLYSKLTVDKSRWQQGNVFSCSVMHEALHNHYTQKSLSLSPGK
T2 sequence (chain, as listed by the source limits assumed): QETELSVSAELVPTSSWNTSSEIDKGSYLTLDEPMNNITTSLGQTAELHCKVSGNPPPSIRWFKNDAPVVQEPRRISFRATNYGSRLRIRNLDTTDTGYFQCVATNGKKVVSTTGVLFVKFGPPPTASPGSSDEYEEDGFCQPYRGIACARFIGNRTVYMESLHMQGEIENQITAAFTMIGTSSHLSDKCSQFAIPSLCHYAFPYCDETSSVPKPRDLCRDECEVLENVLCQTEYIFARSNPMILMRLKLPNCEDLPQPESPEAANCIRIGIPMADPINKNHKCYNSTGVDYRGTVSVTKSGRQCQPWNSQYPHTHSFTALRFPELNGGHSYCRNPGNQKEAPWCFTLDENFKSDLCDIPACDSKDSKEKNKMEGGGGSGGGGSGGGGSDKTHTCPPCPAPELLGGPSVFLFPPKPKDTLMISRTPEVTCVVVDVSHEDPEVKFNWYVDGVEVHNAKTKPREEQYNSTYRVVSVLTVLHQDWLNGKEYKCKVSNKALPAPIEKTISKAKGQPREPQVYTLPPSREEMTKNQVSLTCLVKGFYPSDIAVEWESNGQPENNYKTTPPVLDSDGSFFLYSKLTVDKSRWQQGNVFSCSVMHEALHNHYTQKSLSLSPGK

B1: G3CP G4-P3A1G1AE3 MA-vc-PAB-MMAE conjugate (Cys linker) (VNAR, not shown: small tags and cut ends)
chain: TRVDQSPSSLSASVGDRVTITCVLTDANYGLAATYWYRKNPGSSNKERISISGRYSESVNKGTMSFTLTISSLQPEDSATYYCRAYPWGAGAPYNVQWYDGAGTKVEIKPGVQPCPGGGGGSTRVDQSPSSLSASVGDRVTITCVLTGTRYGLYSTYWYRKNPGSSDEERISISGRYSESVNKGTKSFTLTISSLQPEDSATYYCRAREARHPWLRQWYDGAGTKVEIK
modifications: MA-vc-PAB-MMAE on the single cysteine of the linker PGVQPCPGGGGGS
notes: DAR 1.0
Consider B1, for which, in the test with human ROR1-Fc (CHO) [1], the dissociation constant Kd came to 0.76 nM.

B2: P3A1 G1 AE3.S (VNAR)
VNAR: TRVDQSPSSLSASVGDRVTITCVLTGTRYGLYSSTYWYRKNPGSSDEERISISGRYSESVNKGTKSFTLTISSLQPEDSATYYCRAREARHPWLRQWYDGAGTKVEIKQ
notes: VNAR; entry includes the HisMyc tag
Consider B2, for which the binding result with mouse ROR1-Fc (CHO) and with human ROR1-Fc (CHO) [2] was “binds” each time.

B3: P3A1 G1 NAG8.S (VNAR)
VNAR: TRVDQSPSSLSASVGDRVTITCVLTGTKYGLYASTYWYRKNPGSPNKDRMIIGGRYSESVNNGTKSFTLTISSLQPEDSATYYCRAREARHPWLRQWYDGAGTKVEIKQ
notes: as for B2
As for B3, the binding result with human ROR1-Fc (CHO) [3] is “binds”.

B4: P3A1 G1 NAC6.S (VNAR)
VNAR: TRVDQSPSSLSASVGDRVTITCVLTDTRYALYSSTYWYRKNPGSTDEERISIGGRYSESVNKGSKSFTLTISSLQPEDSATYYCRAREARHPWLRQWYDGAGTKVEIKQ
notes: as for B2
In the case of B4, the binding result in the test with mouse ROR1-Fc (CHO) and with human ROR1-Fc (CHO) [2] was “binds” throughout.

B5: P3A1 G1 AF7.S (VNAR)
VNAR: TRVDQSPSSLSASVGDRVTITCVLTGTKYGLYASTYWYRKNPGSTDKERIIIGGRYSESVNNRSKSFTLTISSLQPEDSATYYCRAREARHPWLRQWYDGAGTKVEIKQ
notes: as for B2
As for B5, the binding result in the test with human ROR1-Fc (CHO) [3] is “binds”.
